Experimental data from publication PMC9584609, “Determination of oligomeric states of proteins via dual-color colocalization with single molecule localization microscopy” (eLife, 2022).

Target: the molecule itself
Assay: dual-color colocalization single molecule localization microscopy (DCC-SMLM); HEK293T cells transiently transfected, fixed with cold methanol; each subunit C-terminally tagged with mVenus and PAmCherry; colocalization ratio compared with the calibrated DCC model (coefficient of mismatch M^2) and with reference proteins (two-sample K.-S. test)

Row | Protein | stoichiometry N
1 | SLC26A3 tagged with mVenus and PAmCherry (natural protein, human, UniProt P40879 1-764, looked up, SLC26A3, human epithelial chloride-bicarbonate exchanger; The same construct was used for DCC-SMLM and hrCNE; also called epithelial chloride-bicarbonate exchanger SLC26A3; source: HEK293T, transfected; on fixed cells (DCC-SMLM) and in lysate (digitonin or DDM, hrCNE); not shown: mVenus, C-terminal, kept; PAmCherry, C-terminal, kept) MIEPFGNQYIVARPVYSTNAFEENHKKTGRHHKTFLDHLKVCCSCSPQKAKRIVLSLFPIASWLPAYRLKEWLLSDIVSGISTGIVAVLQGLAFALLVDIPPVYGLYASFFPAIIYLFFGTSRHISVGPFPILSMMVGLAVSGAVSKAVPDRNATTLGLPNNSNNSSLLDDERVRVAAAASVTVLSGIIQLAFGILRIGFVVIYLSESLISGFTTAAAVHVLVSQLKFIFQLTVPSHTDPVSIFKVLYSVFSQIEKTNIADLVTALIVLLVVSIVKEINQRFKDKLPVPIPIEFIMTVIAAGVSYGCDFKNRFKVAVVGDMNPGFQPPITPDVETFQNTVGDCFGIAMVAFAVAFSVASVYSLKYDYPLDGNQELIALGLGNIVCGVFRGFAGSTALSRSAVQESTGGKTQIAGLIGAIIVLIVVLAIGFLLAPLQKSVLAALALGNLKGMLMQFAEIGRLWRKDKYDCLIWIMTFIFTIVLGLGLGLAASVAFQLLTIVFRTQFPKCSTLANIGRTNIYKNKKDYYDMYEPEGVKIFRCPSPIYFANIGFFRRKLIDAVGFSPLRILRKRNKALRKIRKLQKQGLLQVTPKGFICTVDTIKDSDEELDNNQIEVLDQPINTTDLPFHIDWNDDLPLNIEVPKISLHSLILDFSAVSFLDVSSVRGLKSILQEFIRIKVDVYIVGTDDDFIEKLNRYEFFDGEVKSSIFFLTIHDAVLHILMKKDYSTSKFNPSQEKDGKIDFTINTNGGLRNRVYEVPVETKF | 2
2 | prestin (Slc26a5) tagged with mVenus and PAmCherry (natural protein, rat, UniProt Q9EPH0 1-744, looked up, prestin (Slc26a5), rat motor protein of cochlear outer hair cells; The same construct was used for DCC-SMLM and hrCNE; also called SLC26A5/prestin; source: HEK293T, transfected; on fixed cells (DCC-SMLM) and in lysate (digitonin or DDM, hrCNE); not shown: mVenus, C-terminal, kept; PAmCherry, C-terminal, kept) MDHAEENEIPAETQKYLVERPIFSHPVLQERLHVKDKVTDSIGDKLKQAFTCTPKKVRNIIYMFLPITKWLPAYKFKEYVLGDLVSGISTGVLQLPQGLAFAMLAAVPPVFGLYSSFYPVIMYCFFGTSRHISIGPFAVISLMIGGVAVRLVPDDIVIPGGVNATNGTEARDALRVKVAMSVTLLSGIIQFCLGVCRFGFVAIYLTEPLVRGFTTAAAVHVFTSMLKYLFGVKTKRYSGIFSVVYSTVAVLQNVKNLNVCSLGVGLMVFGLLLGGKEFNERFKEKLPAPIPLEFFAVVMGTGISAGFNLHESYSVDVVGTLPLGLLPPANPDTSLFHLVYVDAIAIAIVGFSVTISMAKTLANKHGYQVDGNQELIALGICNSIGSLFQTFSISCSLSRSLVQEGTGGKTQLAGCLASLMILLVILATGFLFESLPQAVLSAIVIVNLKGMFMQFSDLPFFWRTSKIELTIWLTTFVSSLFLGLDYGLITAVIIALLTVIYRTQSPSYTVLGQLPDTDVYIDIDAYEEVKEIPGIKIFQINAPIYYANSDLYSSALKRKTGVNPAIIMGARRKAMRKYAKEVGNANIANATVVKVDAEVDGENATKPEEEDDEVKFPPIVIKTTFPEELQRFLPQGENIHTVILDFTQVNFMDSVGVKTLAGIVKEYGDVGIYVYLAGCSAQVVNDLTSNRFFENPALKELLFHSIHDAVLGSQVREAMAEQETTVLPPQEDMEPNATPTTPEA | 2
